Reference: article PMC7214462

Assays:
[1] = test system: LdCsm effector complex, wild type (Csm1/Cas10-Csm2-Csm3-Csm4-Csm5) (Lactobacillus delbrueckii subsp. bulgaricus ND04); experiment: EMSA; details: 5 nM 5'-32P S10-60 ssDNA in cleavage buffer (composition not in material; cOA assay buffer is 50 mM Tris-Cl pH 6.8 …)
[2] = test system: LdCsm Csm3D34A (Lactobacillus delbrueckii subsp. bulgaricus ND04); experiment: EMSA; details: 100 nM effector, 500 nM PTR; 5 nM 5'-32P S10-60 ssDNA in cleavage buffer (composition not in material; cOA assay buffer is 50 mM Tris-Cl pH 6.8 …)

In the case of “ACTATAGGGAGAATAGAATGCCCCCATTATACAATATCTACGTTTTAGATGACCCCCCCC / ACGAGAACUUCAAAGCUUAGAUACCCUGGAGG / AUAGAAUGCCCCCAUUAUACAAUAUCUACGUUUUAGAUGAAAAAAA [S10-60 ssDNA + S1 crRNA + S10 RNA (non-homologous)]”, the binding signal (relative to WT with non-homologous RNA) ([1]; 100 nM LdCsm, 400 nM S10 RNA, little binding, reference) is reported as 1.

“ACTATAGGGAGAATAGAATGCCCCCATTATACAATATCTACGTTTTAGATGACCCCCCCC / ACGAGAACUUCAAAGCUUAGAUACCCUGGAGG / GGUGUUAAGUCUGGUUUCCCUCCAGGGUAUCUAAGCUUUGAAA [S10-60 ssDNA + S1 crRNA + CTR+1]” gave a binding signal (% of full activity) ([1]; 100 nM LdCsm, 500 nM CTR+1) of 90.

“ACTATAGGGAGAATAGAATGCCCCCATTATACAATATCTACGTTTTAGATGACCCCCCCC / ACGAGAACUUCAAAGCUUAGAUACCCUGGAGG / GGUGUUAAGUCUGGUUUCCCUCCAGGGUAUCUAAGCUUUGAAAAAAAA [S10-60 ssDNA + S1 crRNA + CTR+6]” was tested, and the binding signal (fraction of CTR+6 complex) ([1]; 100 nM LdCsm, 500 nM CTR+6, reference) was 1.

For “ACTATAGGGAGAATAGAATGCCCCCATTATACAATATCTACGTTTTAGATGACCCCCCCC / ACGAGAACUUCAAAGCUUAGAUACCCUGGAGG / GGUGUUAAGUCUGGUUUCCCUCCAGGGUAUCUAAGCUUUGAAG [S10-60 ssDNA + S1 crRNA + NTR+1]”, the binding signal (% of full activity) ([1]; 100 nM LdCsm, 500 nM NTR+1) was 70.

“ACTATAGGGAGAATAGAATGCCCCCATTATACAATATCTACGTTTTAGATGACCCCCCCC / ACGAGAACUUCAAAGCUUAGAUACCCUGGAGG / UGUUAAGUCUGGUUUCCCUCCAGGGUAUCUAAGCUUUGAA [S10-60 ssDNA + S1 crRNA + PTR (S1-40)]” gave a binding signal (fold vs non-homologous RNA) [2] of 3, a binding signal (% of CTR-LdCsm) ([1]; 100 nM LdCsm, 500 nM PTR) of 55 and a binding signal (fold vs non-homologous RNA) ([1]; 100 nM LdCsm, 500 nM PTR) of 2.

With “ACTATAGGGAGAATAGAATGCCCCCATTATACAATATCTACGTTTTAGATGACCCCCCCC / ACGAGAACUUCAAAGCUUAGAUACCCUGGAGG / UGUUAAGUCUGGUUUCCCUCCAGGGUAUCUAAGCUUUGAAAAAAAA [S10-60 ssDNA + S1 crRNA + CTR (S1-46)]” the binding signal ([1]; 25-100 nM effector, 500 nM CTR, reference) was 100 % of WT.
